Results published in PMC3627495.

How the values were obtained:
[1] = biological target: His-YFP-EB3 and His-CFP-EB3, full-length wild type (human) (UniProt Q9UPY8); experiment: FRET or BRET
[2] = biological target: His-YFP-EB3 S162E and His-CFP-EB3 S162E, full-length phospho-mimetic mutant (human) (UniProt Q9UPY8); experiment: FRET or BRET

| Substance | t1/2 of chain exchange [1] [h] | t1/2 of chain exchange [2] [h] |
| --- | --- | --- |
| His-YFP-EB3 S162E and His-CFP-EB3 S162E, full-length phospho-mimetic mutant (from UniProt Q9UPY8 1-281) (natural protein) | 1.01 | 1.39 |
| His-YFP-EB3 and His-CFP-EB3, full-length wild type (from UniProt Q9UPY8 1-281) (natural protein) | 2.66 | – |
